# Biological target: wild-type SPW1 protein (SUPERWOMAN1, AP3-type class-B MADS-box protein of rice), M, I and K domains, yeast two-hybrid construct (rice (Oryza sativa))
# Assay: yeast two-hybrid, LacZ reporter
substance,measurement,value
"V45T mutant-type protein of OsMADS2, M, I and K domains, yeast two-hybrid construct",binding relative to OsMADS2wt with SPW1^wt (fold of OsMADS2wt-SPW1^wt binding),0.5
